The source of these data is paper PMC5542437, “Assembly and stoichiometry of the core structure of the bacterial flagellar type III export gate complex” (PLoS Biology, 2017).

Changes are numbered by the printed parent chain. Names may count otherwise.

T1: His-St-FliP (Salmonella FliP with a hexahistidine tag inserted between Gln-22 and Leu-23) (Salmonella enterica, UniProt P54700 22-245)
T1 construct: FliP, Salmonella enterica, 25-kDa transmembrane protein; mature form studied; the signal peptide (Met-1 to Gln-22) is cleaved during membrane insertion; tag LHHHHHH inserted between Gln-22 and Leu-23; Hexameric ring in SEC peak 2; also called His-FliP; FliP6 ring; source: Salmonella SJW1368, membranes solubilised with 1% DDM or 1% LMNG; purified (Ni-NTA, SEC); not shown: His6 (LHHHHHH), internal …
T1 sequence: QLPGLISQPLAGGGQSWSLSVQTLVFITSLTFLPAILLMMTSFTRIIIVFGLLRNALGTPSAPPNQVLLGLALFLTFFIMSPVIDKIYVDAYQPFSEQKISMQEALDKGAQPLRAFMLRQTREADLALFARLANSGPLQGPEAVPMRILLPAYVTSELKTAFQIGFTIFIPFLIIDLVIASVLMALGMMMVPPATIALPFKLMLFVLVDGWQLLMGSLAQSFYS

T2: FlhA (Salmonella enterica, UniProt P40729 1-692)
T2 construct: FlhA, Salmonella enterica, transmembrane export gate protein; source: Salmonella SJW1368, pTrc99A-based plasmid, in DDM- or LMNG-solubilised membranes; co-purified
T2 sequence: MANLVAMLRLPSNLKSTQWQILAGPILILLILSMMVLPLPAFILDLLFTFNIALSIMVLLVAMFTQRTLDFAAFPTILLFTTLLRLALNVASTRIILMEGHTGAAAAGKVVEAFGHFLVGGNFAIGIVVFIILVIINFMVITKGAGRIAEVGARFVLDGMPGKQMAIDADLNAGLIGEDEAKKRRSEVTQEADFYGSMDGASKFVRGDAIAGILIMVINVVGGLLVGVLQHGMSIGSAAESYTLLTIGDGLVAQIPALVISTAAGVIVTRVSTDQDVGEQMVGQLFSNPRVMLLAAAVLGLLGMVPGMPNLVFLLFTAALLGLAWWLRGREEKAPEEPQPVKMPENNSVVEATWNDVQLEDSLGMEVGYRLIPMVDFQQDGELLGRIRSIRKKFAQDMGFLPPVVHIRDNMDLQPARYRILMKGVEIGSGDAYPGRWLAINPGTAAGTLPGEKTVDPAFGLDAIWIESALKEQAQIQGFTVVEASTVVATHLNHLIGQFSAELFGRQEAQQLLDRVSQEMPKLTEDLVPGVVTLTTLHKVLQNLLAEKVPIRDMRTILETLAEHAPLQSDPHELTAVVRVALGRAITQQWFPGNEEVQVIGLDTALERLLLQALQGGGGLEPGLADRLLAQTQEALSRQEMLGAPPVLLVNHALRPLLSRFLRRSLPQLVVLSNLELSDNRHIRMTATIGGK

B1: Tm-FliPP (periplasmic domain of FliP of Thermotoga maritima) (domain or fragment)
chain: YNNAITPYLNKETGYQEMFQRVNTRIREFMINELKNHHNEDNVFMLAKNSGIEIAKIEEAPNAVLIPAFVLGELEVAFK
notes: FliP of Thermotoga maritima (printed 'T. maritia'), periplasmic domain between TM-2 and TM-3; the atomic model holds Thr-122 to Lys-188; the N-terminal 13 residues of the construct are invisible; also called FliPP of T. maritia; Tm-FliPP tetramer; source: expression and purification described previously [37]
B2: FliR-FLAG (natural protein)
chain: MIQVTSEQWLYWLHLYFWPLLRVLALISTAPILSERAIPKRVKLGLGIMITLVIAPSLPANDTPLFSIAALWLAMQQILIGIALGFTMQFAFAAVRTAGEFIGLQMGLSFATFVDPGSHLNMPVLARIMDMLAMLLFLTFNGHLWLISLLVDTFHTLPIGSNPVNSNAFMALARAGGLIFLNGLMLALPVITLLLTLNLALGLLNRMAPQLSIFVIGFPLTLTVGIMLMAALMPLIAPFCEHLFSEIFNLLADIVSEMPINNNP
notes: FliR, Salmonella enterica, transmembrane export gate protein; also called FLAG-FliR (as printed in the methods); source: Salmonella SJW1368, pTrc99A-based plasmid, in DDM- or LMNG-solubilised membranes; co-purified (Ni-NTA, anti-FLAG gel, SEC)
B3: FliF (natural protein)
chain: MSATASTATQPKPLEWLNRLRANPRIPLIVAGSAAVAIVVAMVLWAKTPDYRTLFSNLSDQDGGAIVAQLTQMNIPYRFANGSGAIEVPADKVHELRLRLAQQGLPKGGAVGFELLDQEKFGISQFSEQVNYQRALEGELARTIETLGPVKSARVHLAMPKPSLFVREQKSPSASVTVTLEPGRALDEGQISAVVHLVSSAVAGLPPGNVTLVDQSGHLLTQSNTSGRDLNDAQLKFANDVESRIQRRIEAILSPIVGNGNVHAQVTAQLDFANKEQTEEHYSPNGDASKATLRSRQLNISEQVGAGYPGGVPGALSNQPAPPNEAPIATPPTNQQNAQNTPQTSTSTNSNSAGPRSTQRNETSNYEVDRTIRHTKMNVGDIERLSVAVVVNYKTLADGKPLPLTADQMKQIEDLTREAMGFSDKRGDTLNVVNSPFSAVDNTGGELPFWQQQSFIDQLLAAGRWLLVLVVAWILWRKAVRPQLTRRVEEAKAAQEQAQVRQETEEAVEVRLSKDEQLQQRRANQRLGAEVMSQRIREMSDNDPRVVALVIRQWMSNDHE
notes: FliF, Salmonella enterica, transmembrane protein that forms the MS ring; also called MS ring; source: Salmonella SJW1368, pTrc99A-based plasmid, in DDM-solubilised membranes
B4: FlhB (natural protein)
chain: MAEESDDDKTEAPTPHRLEKAREEGQIPRSRELTSLLILLVGVCIIWFGGESLARQLAGMLSAGLHFDHRMVNDPNLILGQIILLIKAAMMALLPLIAGVVLVALISPVMLGGLIFSGKSLQPKFSKLNPLPGIKRMFSAQTGAELLKAVLKSTLVGCVTGFYLWHHWPQMMRLMAESPIVAMGNALDLVGLCALLVVLGVIPMVGFDVFFQIFSHLKKLRMSRQDIRDEFKESEGDPHVKGKIRQMQRAAAQRRMMEDVPKADVIVTNPTHYSVALQYDENKMSAPKVVAKGAGLIALRIREIGAEHRVPTLEAPPLARALYRHAEIGQQIPGQLYAAVAEVLAWVWQLKRWRLAGGQRPPQPENLPVPEALDFMNEKNTDG
notes: FlhB, Salmonella enterica, transmembrane export gate protein; its C-terminal cytoplasmic domain undergoes autocleavage between Asp-269 and Pro270 as printed; source: Salmonella SJW1368, pTrc99A-based plasmid, in DDM- or LMNG-solubilised membranes; co-purified
B5: FliG-His (natural protein)
chain: MSNLSGTDKSVILLMTIGEDRAAEVFKHLSTREVQALSTAMANVRQISNKQLTDVLSEFEQEAEQFAALNINANEYLRSVLVKALGEERASSLLEDILETRDTTSGIETLNFMEPQSAADLIRDEHPQIIATILVHLKRSQAADILALFDERLRHDVMLRIATFGGVQPAALAELTEVLNGLLDGQNLKRSKMGGVRTAAEIINLMKTQQEEAVITAVREFDGELAQKIIDEMFLFENLVDVDDRSIQRLLQEVDSESLLIALKGAEPPLREKFLRNMSQRAADILRDDLANRGPVRLSQVENEQKAILLIVRRLAETGEMVIGSGEDTYV
notes: FliG, Salmonella enterica, C ring protein; also called His-FliG; source: Salmonella SJW1368, pTrc99A-based plasmid, in DDM-solubilised membranes; not shown: His tag, C-terminal, kept
B6: His-FliP(F137A) (natural protein)
chain: T1 sequence with F116A
notes: FliP, Salmonella enterica; mature form; signal peptide (Met-1 to Gln-22) cleaved; His tag inserted between Gln-22 and Leu-23; source: Salmonella SJW1368, co-expressed with FliO, DDM-solubilised membranes; purified (Ni-NTA, SEC); not shown: His6 (LHHHHHH), internal (after residue 22), kept
B7: His-FliP(F150A) (natural protein)
chain: T1 sequence with F129A
notes: FliP, Salmonella enterica; mature form; signal peptide (Met-1 to Gln-22) cleaved; His tag inserted between Gln-22 and Leu-23; also called His-FliP(F1507A) [sic]; source: Salmonella SJW1368, co-expressed with FliO, DDM-solubilised membranes; purified (Ni-NTA, SEC); not shown: His6 (LHHHHHH), internal (after residue 22), kept
B8: His-FliP(E178A) (natural protein)
chain: T1 sequence with E157A
notes: as for B6

Data set [1] concerns the molecule itself. In words: crystal structure; Tm-FliPP, 2.4 Å, SAD phasing with a Se-Met derivative; 2 tetramers in the asymmetric unit.
Data set [2] addresses T1, His-St-FliP (Salmonella FliP with a …). Kind of data set: pull-down; copurification from Salmonella SJW1368 co-expressing His-FliP with other export gate proteins; membranes solubilised with 1% DDM; Ni affinity, then anti-FLAG M2 affinity (eluted with FLAG peptide), then SEC on Superdex 200 10/300; SDS-PAGE with CBB. The note with it: partners not purified.
Data set [3] concerns the molecule itself. Kind of data set: negative-stain electron microscopy with 2D class averaging; purified SEC peak fractions, 1.0% uranyl acetate, 100 kV; autocorrelation analysis for the rotational symmetry of the FliP ring.
The target of data set [4] is T2, FlhA. Kind of data set: SEC; Ni-purified FlhA/FliF/FliG-His complex on Superdex 200 10/300 (DDM); main peak examined by negative-stain EM. Particulars: both partners purified. A general note: In gel filtration, larger molecules generally elute earlier.
In data set [5] the target is B3. Kind of data set: pull-down; Ni affinity copurification with FliG-His from SJW1368 co-expressing FlhA, FlhB, FliF, FliG-His, FliO, FliP, HA-FliQ and FliR-FLAG; membranes solubilised with 1% DDM. The note with it: partners not purified.
Data set [6] deals with the molecule itself. Kind of data set: SEC; Ni-purified His-FliP or FliO/His-FliP complexes (wild type and mutants) on Superdex 200 10/300; 20 mM Tris-HCl pH 8.0, 300 mM NaCl, 2 mM EDTA, 5% glycerol, 0.1% DDM.

The stoichiometry N is a count of units in the complex or per binding partner.

On to B1, for which the “stoichiometry N” value in data set [1] was 4.
Turning to B2, the “stoichiometry N” value in data set [2] was ~2 copies of FliR per 6 copies of FliP.
Take B3: the binding result in data set [3] and in data set [4] was “binds” each time.
As to B4, in data set [2], the “stoichiometry N” value is ~2 copies of FlhB per 6 copies of FliP.
As to B5, the binding result in data set [5] was “binds”.
For the molecule B6, in data set [6], the “stoichiometry N” value was found to be 2.
On to B7, for which the “stoichiometry N” value in data set [6] was 2.
Still for that read-out and setting: for B8 the value was 2.
